According to patent publication US20140187758A1:
pKd: −log10 of the molar value.

Columns and labels:
[1] = molecular target: European Corn Borer-aminopeptidase 1 (Ostrinia nubilalis)
[2] = molecular target: European Corn Borer-cadherin (Ostrinia nubilalis)

Substance: Cry1Ac core toxin (trypsin-cleaved Cry1Ac holotoxin) (from UniProt P05068 29-623) (ligand)
- pKd [1]: 6.97
- pKd [2]: 7.32
